# From the supplement of paper PMC9170038
# System: K4 kissing-loop RNA reporter
# Assay: apparent KD of K4 kissing-loop reporter; higher = weaker reporter binding
# Conditions: Eterna round: R107; input ligand: FMN 200 uM
# Protocol: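 RNA-MaP round R107: designed RNA switches with theophylline, tryptophan, arginine or FMN aptamers are transcribed on-chip within common flanks. They are titrated with a labelled K4 kissing-loop RNA reporter in RNA-MaP buffer (100 mM Tris pH 7.5, 80 mM KCl, 4 mM MgCl2), without ligand or with the indicated ligand. Median apparent KD per design.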
# 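Further: bound reporter read as fluorescence of individual clusters on recovered sequencing chips by microscopy, with normalized cluster intensities fitted with a binding model.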
row,Sequence,apparent KD of K4 kissing-loop reporter [nM]
1,AAGUGUCAUUAGACACAGACUACAAUACACUAGGAUAUGCUGAUAAGCAGAAGGAGUGAUGUUCCUUUCAAGUAGUCAAUUAAAU [FmnAX 21 Mat Inspired #SwitchBubble #StaticStem #K4Late],237
2,GGAUCCACCAGUGAUGUUGGAGAAAACUUCAAGGAUAUGACGAAAGUCAGAAGGUGGUAGACUGGACAAAGUCCGGUGGGAUCCA [FmnA10 U29+G78],622
3,GGCAUAGUCUCAACGUGUGGUUGGGUUGGGAAGGAUAUUUGAUCGAAAAGAAGGUCCCGCAUUGAGUGAUGUUCAAGGGCUCCAA [theeternabot_exclusion_KL_FMN_A_26],226
4,CCAGGAUGAUGAGGAUGAUGAAUUACUGAAGGAGCGCAUAUGGUUGCAGGUAGGUCGCGGUGAAUAAGUAUAGUGAUGUUAUGCC [SSArgA.X],530
5,GCCGUAGAUGGAAGGAGCGUGGUGGACUCGUGAAGUGAUGUUUCAAGUCGAUAUGCCCAACCACAGGUAGGUCGCCAUCUACGGC,206
6,GUAGGAUGAGGAGGAGGAUGAAUUACUGAAGGAGCGCAUAUAAAUGCAGGUAGGUCGCGGUAAAGAAGUAUAGUGAUGUUAUAUA [SSArgA.G],421
7,UGGUGCCAUUGGCGGGUAGAUAGUGGUGGCAAGGAUAUGUGAGCGAACAGAAGGUGCAUCAAGUUCAGUGAUGUUGGGCUCGAUU [theeternabot_sameState_KL_FMN_A_20],264
8,AUCGAUAUCAGAGGAUAUGCUUAAUUGAUUUAUUAUUAUUUAUUAUGCAGUGAUGUUGCAUUUUUUGCAGAAGGCUGAUUUCGAA [JR_SSFMNB_Sub022],112
9,UGUCAUGGAAACAUGAACGUUGAUGUUCGACGAGGACCGGUACGGCCGCCACUCGAGUAAUAGUCAGUGAUGUUGACUGGGCUAA [KL-SSTryp-A form1 sub2],146
10,UAUAUAGUGACGGCCGCCACUAUAUUAAUGUUUUUGUUAGAGUGAUGUUUUGAUUAAUAUUUUUAUAGGACCGGGUUAUAUGUUA [xzzxmullin],657
11,ACAGCGAGCAUUAACGCGCUCGCAGGUUGCAAGGAUAUAUUUCGUCAUAGAAGGUGCUAGACCAUAAGUGAUGUUUGUGGAUAUA [theeternabot_sameState_KL_FMN_A_16],576
12,AGGCAAUAUGCGGCCGCCACUUUCAGUGAUGUUGAGACGCGGAAUGUUGUAUAAUAUCGCCACGAAAGGACCGGGCAAGGGAAAG [theeternabot_exclusion_KL_Trp_B_5],691
13,GGCAGUGAUGUUGCCAGUGGCAGAUUGGAAGGAGCGUGGUGAGACACAGGUAGGUCGCUAAUUGAAGUUGCUGUCACUAAAAUGC [whbob_Ex_Arginine_A_2t131],276
14,GGAGGCUAUGCAGGAUAUAGUCGGUUGAGUGAUGUUUAACGACUAAACCUUCUAAGUCACAGCCCGCUAGAAGGGCAUAGCCUCC,427
15,GCAUCGAUGGCAGGAUAUAGGUUCGUGGAGUGAUGUUCCAUAGCCCGAGUGAUGUUCGUUAUCCGCCUAGAAGGGCCGUGGAUGC [whbob_Ex_FMNB__2th215],263
16,CAGAACUUAUAUAGAAACUAUAUAAGAGAUACCAGUCAAAUUAAAGACCCUUGGCAGCUCAGGCGAGUGAUGUUCGCAGGCUAAC [Astros-Gfrank-modulation#1],99.3
17,GGCUUGCCAGUGAUGUUGGCAUAAACUGAAGGAGCGCGUGAAAACGCAGGUAGGUCGCAGAACCUUGCCAACUAUUUUAUUUGCC [Ex Arginine A K4 24],192
18,GGGUCAGUCUGAAGGAGCGGCCAGACAGAGCAGUGAUGUUGCUCCUCCGGAAACGGUGUCGGCCAGGUAGGUCGCAGAUUGGCUC [Dienralais mod v1],153
19,UGUCAUUGGUCGGCCGCCACUUCGUGUGGAGUGAUGUUUUGUAGGUUGUGUUGAAAGGUAUGGUGAAGGACCGGGACCGAUGACU [FiskerMod 20 - Jieux - Same State - Tryptophan B],651
20,AUGUCUGAUAGCAGUGAUGUUGCUUCGGAUACCAGACGAGAUCAUGUCCCUUGGCAGCUGACACGGCACGUGCUAGGUUAGAUGA [whbob_Ex_Theo_A_th72],121
21,AGUAGUUGGACGGCCGCCACUAGAACGCCUUUGCCAAAGGCAGAGGACUAGAGUGAUGUUCUAGCUAGGACCGGGUCCAACUACA [Omei KL Tryp B SS A v4],224
22,AAGUGUCAUUAGACACAGACUACAAUACGCUAGGAUAUGCUGAUAAGCAGAAGGAGUGAUGUUCCUUUCAAGUAGUCAAUUAAAU [FmnAX 22 Mat Inspired #SwitchBubble #StaticStem #K4Late],319
23,CUGGGUUGACGAAAAGUCAACAAAUGAGAAGGAGCGCACGAAAGUGCAGGUAGGUCGCUCAGUCCAGUGAUGUUGGAUCAUCCAG [#SwitchBubble 10 #K4Late],461
24,GGAGAGAACUGAAGGAGCGGCAAGAGAGAAGGAAAUAUAGUGAUGUUAUAUAAGAGAGAGAGCCAGGUAGGUCGCAGAGGGAGGA [ExArgB.A],201
25,AGAACUGUCUGGGAUACCAGCCGAGGAGUGAUGUUCCGGCUCGACGAAACGUCGAGCCACGGCCCUUGGCAGCUCAGACAGUUCA [#21 K4 Theophylline B Same State],674
26,UUUUAAAUGUCUGAUACCAGAGAAAAUUUAUGUAGUGAUGUUAUAUACAAAAUAAAUAAGCUCCCUUGGCAGCAGUAUUAAUUUU [AstrosExc-TheB#7],465
